Reference: the supplement of paper PMC7877785
± gives the uncertainty stated by the source.

Test: self-splicing fitness, log relative to wild type (ln ratio); higher = more splicing; Tetrahymena group I intron in knt gene, E. coli kanamycin selection, DiMSum; sequences stand for … in CUCUCU…GGAGGGAAAAGUUAUCAGGCAUGCACCUGGUAGCUAGUCUUUAAACCAAUAGAUUGCAUCGGUUUAAAAGGCAAGACCGUCAAAUUGCGGGAAAGGGGUCAACAGCCGUUCAGUACCAAGUCUCAGGGGAAACUUUGAGAUGGCCUUGCAAAGGGUAUGGUAAUAAGCUGACGGACAUGGUCCUAACCACGCAGCCAAGUCCUAAGUCAACAGAUCUUCUGUUGAUAUGGAUGCAGUUCACAGACUAAAUGUCGGUCGGGGAAGAUGUAUUCUUCUCAUAAGAUAUAGUCGGACCUCUCCUUAAUGGGAGCUAGCGGAUGAAGUGAUGCAACACUGGAGCCGCUGGGAACUAAUUUGUAUGCGAAAGUAUAUUGAUUAGUUUUGGAGUACUCGUGGUCG
Procedure, shortened: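 Library with all eight P1ex-region intron nucleotides randomised, intron inside the knt kanamycin-resistance gene on pET-22b(+), in E. coli BL21(DE3). Cells grew overnight at 37°C or 30°C on LB agar with or without 25 μg/mL kanamycin (plus 100 μg/mL carbenicillin, 50 μM IPTG, 0.2% rhamnose), in six replicate transformations. Pooled colonies were amplicon-sequenced on Illumina HiSeq 2500. DiMSum fitness is the error-weighted combination of wild-type-normalised replicate fold changes, kanamycin versus none.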

Row | Sequence | self-splicing fitness (ln) (30 °C) | self-splicing fitness (ln) (37 °C)
1 | AUACAGCAAUAUUACGAACC | -2.11 ± 0.15 | -0.458 ± 0.16
2 | AUACAGCAAUAUUACGAACU | -0.142 ± 0.079 | 0.0661 ± 0.099
3 | AUACAGCAAUAUUACGAAGU | -3.31 ± 0.12 | -1.22 ± 0.11
4 | AUACAGCAAUAUUACGAAUC | -4.08 ± 0.25 | -2.3 ± 0.18
5 | AUACAGCAAUAUUACGACAA | -1.19 ± 0.093 | -0.929 ± 0.12
6 | AUACAGCAAUAUUACGACGA | -1.84 ± 0.13 | -0.966 ± 0.13
7 | AUACAGCAAUAUUACGACGG | -3.2 ± 0.15 | -0.835 ± 0.13
8 | AUACAGCAAUAUUACGAGUU | -2.65 ± 0.14 | -0.493 ± 0.1
9 | AUACAGCAAUAUUACGAUUC | -2.06 ± 0.1 | -0.118 ± 0.096
10 | AUACAGCAAUAUUACGCAAG | -2.28 ± 0.12 | -1.49 ± 0.13
11 | AUACAGCAAUAUUACGCCAU | -2.01 ± 0.13 | -0.757 ± 0.14
12 | AUACAGCAAUAUUACGCCGG | -2.34 ± 0.17 | -1.38 ± 0.21
13 | AUACAGCAAUAUUACGCGGA | -2.02 ± 0.17 | -1.74 ± 0.14
14 | AUACAGCAAUAUUACGCUAA | -1.96 ± 0.12 | -1.01 ± 0.12
15 | AUACAGCAAUAUUACGCUUC | -3.06 ± 0.17 | -3.25 ± 0.24
16 | AUACAGCAAUAUUACGGAGA | -3.81 ± 0.33 | -0.736 ± 0.27
17 | AUACAGCAAUAUUACGGAUA | -2.52 ± 0.14 | -2.38 ± 0.17
18 | AUACAGCAAUAUUACGGCCA | -0.834 ± 0.11 | -0.783 ± 0.1
19 | AUACAGCAAUAUUACGGGAU | -0.898 ± 0.076 | -0.747 ± 0.1
20 | AUACAGCAAUAUUACGGUGU | -3.8 ± 0.2 | -2.18 ± 0.13
21 | AUACAGCAAUAUUACGUACU | -0.171 ± 0.059 | 0.38 ± 0.083
22 | AUACAGCAAUAUUACGUAGU | -1.34 ± 0.067 | -0.206 ± 0.083
23 | AUACAGCAAUAUUACGUCAA | -2.32 ± 0.15 | -1.05 ± 0.1
24 | AUACAGCAAUAUUACGUCCG | -1.75 ± 0.13 | -1.38 ± 0.17

Row | Sequence | self-splicing fitness (ln) (30 °C) | self-splicing fitness (ln) (37 °C)
25 | AUACAGCAAUAUUACGUCGA | -1.77 ± 0.13 | -1.23 ± 0.12
26 | AUACAGCAAUAUUACGUGCU | -3.03 ± 0.15 | -1.18 ± 0.12
27 | AUACAGCAAUAUUACGUGUG | -1.73 ± 0.051 | -0.977 ± 0.062
28 | AUACAGCAAUAUUACGUUCU | 0.212 ± 0.1 | -0.221 ± 0.12
29 | AUAGAGCAAUAUUACGAUAU | -0.196 ± 0.065 | 1.04 ± 0.082
30 | AUAGAGCAAUAUUACGCAAA | -2.79 ± 0.2 | -1.03 ± 0.18
31 | AUAGAGCAAUAUUACGCGUU | -1.47 ± 0.12 | -0.672 ± 0.13
32 | AUAGAGCAAUAUUACGCUCU | -2.65 ± 0.28 | -1.32 ± 0.42
33 | AUAGAGCAAUAUUACGGAUU | -0.783 ± 0.091 | -0.15 ± 0.14
34 | AUAGAGCAAUAUUACGGUCG | -1.65 ± 0.18 | -1.12 ± 0.23
35 | AUAGAGCAAUAUUACGUACG | -2.22 ± 0.2 | -1.53 ± 0.23
36 | AUAGAGCAAUAUUACGUCAC | -1.53 ± 0.22 | -0.0932 ± 0.22
37 | AUAGAGCAAUAUUACGUCGC | -2.68 ± 0.2 | -0.381 ± 0.18
38 | AUAGAGCAAUAUUACGUCUU | 0.446 ± 0.074 | 0.419 ± 0.087
39 | AUAGAGCAAUAUUACGUUGG | -4.04 ± 0.25 | -2.51 ± 0.19
40 | AUAGAGCAAUAUUACGUUUA | -0.804 ± 0.13 | -0.629 ± 0.14
41 | AUAGAGCAAUAUUACGUUUG | -1.43 ± 0.11 | -2 ± 0.21
42 | AUAUAGCAAUAUUACGAACC | -1 ± 0.27 | 0.205 ± 0.24
43 | AUAUAGCAAUAUUACGAAGA | -2.16 ± 0.4 | -1.98 ± 0.47
44 | AUAUAGCAAUAUUACGACAA | -0.546 ± 0.21 | 0.567 ± 0.18
45 | AUAUAGCAAUAUUACGACCG | -1.62 ± 0.22 | 0.433 ± 0.41
46 | AUAUAGCAAUAUUACGAGAA | -1.72 ± 0.34 | -0.73 ± 0.36
47 | AUAUAGCAAUAUUACGAGCC | -2.89 ± 0.32 | -2.08 ± 0.37
48 | AUAUAGCAAUAUUACGAUAG | -2.39 ± 0.22 | -1.51 ± 0.24

Row | Sequence | self-splicing fitness (ln) (30 °C) | self-splicing fitness (ln) (37 °C)
49 | AUAUAGCAAUAUUACGAUUC | -1.29 ± 0.19 | -0.0451 ± 0.23
50 | AUAUAGCAAUAUUACGCACC | -0.862 ± 0.2 | -0.94 ± 0.18
51 | AUAUAGCAAUAUUACGCGCU | 0.0604 ± 0.24 | -0.878 ± 0.38
52 | AUAUAGCAAUAUUACGCGGA | -1.65 ± 0.26 | -1.67 ± 0.17
53 | AUAUAGCAAUAUUACGCUAU | -2.98 ± 0.27 | -0.715 ± 0.24
54 | AUAUAGCAAUAUUACGCUGA | -1.3 ± 0.2 | -1.15 ± 0.24
55 | AUAUAGCAAUAUUACGGAUA | -2.76 ± 0.31 | -1.63 ± 0.3
56 | AUAUAGCAAUAUUACGGAUC | -1.55 ± 0.2 | 0.109 ± 0.26
57 | AUAUAGCAAUAUUACGGCCU | -0.457 ± 0.22 | -1.58 ± 0.39
58 | AUAUAGCAAUAUUACGGGCU | -2.22 ± 0.17 | -1.6 ± 0.21
59 | AUAUAGCAAUAUUACGGGGU | -2.23 ± 0.18 | -2.25 ± 0.29
60 | AUAUAGCAAUAUUACGGGUA | -2.09 ± 0.25 | -0.788 ± 0.19
61 | AUAUAGCAAUAUUACGUAAG | -1.61 ± 0.14 | -0.705 ± 0.19
62 | AUAUAGCAAUAUUACGUACC | -1.41 ± 0.2 | -0.927 ± 0.28
63 | AUAUAGCAAUAUUACGUCCU | -0.548 ± 0.11 | 0.119 ± 0.12
64 | AUAUAGCAAUAUUACGUGAA | -1.57 ± 0.28 | -0.717 ± 0.33
65 | AUAUAGCAAUAUUACGUGAC | – | -2.85 ± 0.32
66 | AUAUAGCAAUAUUACGUGUU | -4.26 ± 0.39 | -1.21 ± 0.18
67 | AUAUAGCAAUAUUACGUUAA | -2.76 ± 0.23 | -3.36 ± 0.37
68 | AUAUAGCAAUAUUACGUUCA | -0.388 ± 0.23 | -0.707 ± 0.23
69 | AUAUAGCAAUAUUACGUUGC | -2.4 ± 0.19 | -1.25 ± 0.23
70 | AUCAAGCAAUAUUACGAAUU | -3.12 ± 0.14 | -1.21 ± 0.14
71 | AUCAAGCAAUAUUACGAGUC | -3.08 ± 0.23 | -2.19 ± 0.24
72 | AUCAAGCAAUAUUACGAUCG | -3.37 ± 0.2 | -3.55 ± 0.28

Row | Sequence | self-splicing fitness (ln) (30 °C) | self-splicing fitness (ln) (37 °C)
73 | AUCAAGCAAUAUUACGAUGC | -2.01 ± 0.19 | -1.1 ± 0.23
74 | AUCAAGCAAUAUUACGAUUU | -0.487 ± 0.056 | -0.186 ± 0.072
75 | AUCAAGCAAUAUUACGCCCG | -0.965 ± 0.17 | -0.202 ± 0.2
76 | AUCAAGCAAUAUUACGCCUA | -0.765 ± 0.11 | -0.646 ± 0.095
77 | AUCAAGCAAUAUUACGGAAA | -2.58 ± 0.24 | -1.7 ± 0.21
78 | AUCAAGCAAUAUUACGGAAG | -2.78 ± 0.11 | -2.01 ± 0.12
79 | AUCAAGCAAUAUUACGGAUC | -3.29 ± 0.25 | -1.91 ± 0.21
80 | AUCAAGCAAUAUUACGGCCC | -0.747 ± 0.31 | –
81 | AUCAAGCAAUAUUACGGCCU | -0.508 ± 0.05 | 0.15 ± 0.066
82 | AUCAAGCAAUAUUACGGCUA | -0.209 ± 0.097 | 0.184 ± 0.11
83 | AUCAAGCAAUAUUACGGUUG | -3.05 ± 0.25 | -1.92 ± 0.19
84 | AUCAAGCAAUAUUACGUAAU | -1.1 ± 0.056 | -0.247 ± 0.081
85 | AUCAAGCAAUAUUACGUAGU | -2.22 ± 0.08 | -1.14 ± 0.097
86 | AUCAAGCAAUAUUACGUCAC | -2.32 ± 0.16 | -2.28 ± 0.3
87 | AUCAAGCAAUAUUACGUCAU | -2.05 ± 0.088 | -1.45 ± 0.088
88 | AUCAAGCAAUAUUACGUCGU | -1.5 ± 0.052 | -0.574 ± 0.071
89 | AUCAAGCAAUAUUACGUGCC | -1.51 ± 0.14 | -0.426 ± 0.16
90 | AUCAAGCAAUAUUACGUGCU | -2.33 ± 0.088 | -1.7 ± 0.11
91 | AUCAAGCAAUAUUACGUGGC | -4.3 ± 0.37 | -3.52 ± 0.35
92 | AUCCAGCAAUAUUACGAAUA | -1.44 ± 0.13 | -0.957 ± 0.13
93 | AUCCAGCAAUAUUACGAAUG | -1.94 ± 0.12 | -1.36 ± 0.11
94 | AUCCAGCAAUAUUACGACUG | -3.86 ± 0.3 | -2.95 ± 0.28
95 | AUCCAGCAAUAUUACGAGAG | -1.45 ± 0.098 | -1.05 ± 0.1
